Experimental findings from paper PMC8718552 (Frontiers in Immunology, 2021) are described below.

Data set [1] concerns the target SARS-CoV-2 ORF8 (S84) (71–76) A mutant (SARS-CoV-2) (UniProt P0DTC8). The data set is described as follows: SEC. Background: In gel filtration, larger molecules generally elute earlier.
Data set [2] addresses SARS-CoV-2 ORF8 (S84) Ig-like domain (SARS-CoV-2) (UniProt P0DTC8). The data set is described as follows: non-reducing SDS-PAGE.
Data set [3] shares this target. The data set is described as follows: SEC.
The target in data set [4] is CD14 on human CD14+ monocytes (UniProt P08571). The data set is described as follows: flow cytometry on cells. In general terms: A flow cytometer gives signals particle by particle.
Sequence of CD14 on human CD14+ monocytes (P08571 20-345): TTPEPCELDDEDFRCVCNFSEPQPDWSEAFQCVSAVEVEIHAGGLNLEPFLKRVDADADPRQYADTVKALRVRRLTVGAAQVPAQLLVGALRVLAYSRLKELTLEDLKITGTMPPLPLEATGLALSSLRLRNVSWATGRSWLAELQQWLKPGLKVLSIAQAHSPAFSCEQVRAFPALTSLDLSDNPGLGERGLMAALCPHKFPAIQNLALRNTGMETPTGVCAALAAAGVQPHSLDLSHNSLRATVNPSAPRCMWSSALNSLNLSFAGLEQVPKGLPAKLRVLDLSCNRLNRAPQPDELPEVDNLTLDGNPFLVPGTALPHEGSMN
The data set “non-reducing SDS-PAGE” concerns the molecule itself. The data set is described as follows: non-reducing SDS-PAGE.

As usually defined, the stoichiometry N is a count of units in the complex or per binding partner. Regarding “SARS-CoV-2 ORF8 (S84) (71–76) A mutant (from UniProt P0DTC8 16-121) (domain or fragment)”, in data set [1], the stoichiometry N worked out at 2.
Turning to “SARS-CoV-2 ORF8 (S84) Ig-like domain (from UniProt P0DTC8 16-121) (domain or fragment)”, the stoichiometry N in data set [2] and in data set [3] was 2 each time.
Regarding “SARS-CoV-2 ORF8 (L84) Ig-like domain (from UniProt P0DTC8) L84S”, the response in data set [4] (parent: 48.7) stood at 37.7%; in data set [4] (parent: 51.8), 32.7%; in data set [4] (parent: 54.1), 32.7%; in data set [4] (parent: 68.0), 47.9%; in data set [4] (parent: est. 56, read off a plot) it was 38%.

B1: SARS-CoV-2 ORF8 (L84) (71–76) A (domain or fragment)
chain: FHQECSLQSCTQHQPYVVDDPCPIHFYSKWYIRVGARKSAPLIELCVDEAGSKSPAAAAAAGNYTVSCLPFTINCQEPKLGSLVVRCSFYEDFLEYHDVRVVLDFI
On to B1, for which the binding result in the data set “non-reducing SDS-PAGE” is reported as “binds”.
